The target in assay [1] is T1, hPIV-3 fusion protein (F), expressed on transfected HEK293T cells (human parainfluenza virus 3 (hPIV-3), UniProt P06828 19-539).
T1 construct: whole, on cells
Nature of the assay: flow cytometry on transfected HEK293T cells (FIG. 4). Background: Flow cytometry measures light scatter and fluorescence of single cells or particles in a stream.

Assay [2] deals with T2, D275N- and R277T-mutant hPIV-3 HN, expressed on transfected HEK293T cells (human parainfluenza virus 3 (hPIV-3), UniProt P08492 1-572).
T2 construct: also called mut HN3
T2 chain: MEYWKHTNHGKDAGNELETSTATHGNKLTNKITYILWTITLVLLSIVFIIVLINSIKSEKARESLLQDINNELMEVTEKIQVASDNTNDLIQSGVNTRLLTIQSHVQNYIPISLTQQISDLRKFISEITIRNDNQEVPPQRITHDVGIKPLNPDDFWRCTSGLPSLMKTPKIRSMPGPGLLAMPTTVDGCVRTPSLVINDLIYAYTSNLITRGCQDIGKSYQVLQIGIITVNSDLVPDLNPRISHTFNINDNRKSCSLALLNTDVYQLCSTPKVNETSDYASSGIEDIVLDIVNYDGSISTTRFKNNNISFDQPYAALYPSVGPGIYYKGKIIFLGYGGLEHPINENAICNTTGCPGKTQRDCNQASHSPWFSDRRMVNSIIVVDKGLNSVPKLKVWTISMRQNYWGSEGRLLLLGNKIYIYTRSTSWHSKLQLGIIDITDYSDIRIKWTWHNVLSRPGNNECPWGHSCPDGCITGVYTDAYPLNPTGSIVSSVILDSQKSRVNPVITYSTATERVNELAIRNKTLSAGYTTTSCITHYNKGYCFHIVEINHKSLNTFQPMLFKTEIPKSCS
Nature of the assay: flow cytometry on transfected HEK293T cells, VHH 1 or 0.1 µg/ml (FIG. 11C).

Assay [3] concerns the target T3, hPIV-3 hemagglutinin-neuraminidase (HN), expressed on transfected HEK293T cells (human parainfluenza virus 3 (hPIV-3), UniProt P08492 1-572).
T3 chain: T2 chain with N275D, T277R

In assay [4] the target is T3, hPIV-3 hemagglutinin-neuraminidase …. The experiment in a line: flow cytometry on transfected HEK293T cells, 10 µg/ml (FIG. 16A).
Assay [5] deals with T2, D275N- and R277T-mutant hPIV-3 HN, …. Nature of the assay: flow cytometry on transfected HEK293T cells (FIG. 11C).
Assay [6] addresses HN of hPIV-3-GFP virus (on virions and on hPIV-3-infected cells) (human parainfluenza virus 3 (hPIV-3), UniProt P08492 1-572). The experiment in a line: cell-based or functional assay.

Residue numbers refer to the chain shown, from its start.

B1: VHH A2R3-60 (VHH)
VHH: QVQLQESGGGLVQPGGSLRLDCAASGTTVSINGMGWYRQAPGKQREFVALSTTGGVTNYADSVKGRFTISMDNAKKTVALQMNSLKPEDTAVYYCNAVASPSWGLYDDYWGQGTQVTVSS
notes: also called 2AR3-60
As for B1, the binding result is recorded as “no binding (tested: 1 µg/ml)” in assay [1] and “binds” in assay [2]. For the same molecule, the “fold reduction of binding at 500 µg/ml of zanamivir” value in assay [3] is 1.5 fold.

B2: humanized A2R3-59-Fc construct version 1 (Fc fusion)
chain: DVQLVESGGGLVQPGGSLRLSCAASGSISGINGMGWYRQAPGKQRELVAAITSGGSTNYADSVKGRFTISRDNAKNTVYLQMNSLRPEDTAVYYCYVSSTPSWGLYDDYWGQGTLVTVSSGGGGSGGGGSDKTHTCPPCPAPEAAGGPSVFLFPPKPKDTLMISRTPEVTCVVVDVSHEDPEVKFNWYVDGVEVHNAKTKPREEQYNSTYRVVSVLTVLHQDWLNGKEYKCKVSNKALGAPIEKTISKAKGQPREPQVYTLPPSRDELTKNQVSLTCLVKGFYPSDIAVEWESNGQPENNYKTTPPVLDSDGSFFLYSKLTVDKSRWQQGNVFSCSVMHEALHNHYTQKSLSLSPG
notes: also called h59-Fc; A2R3-h59-Fc
Regarding B2, the binding result in assay [4] was “binds”.

B3: bivalent VHH A2R3-57-57 (VHH)
chain: QVQLQESGGGLVQPGGSLRLSCAASGSIFSTDAMGWYRQPPGKQRELVATITSGGSTNYVDSVKGRFTISRDNAKNTVYLQMNSLKPEDTAVYYCALHQTTGWGLYNDYWGQGTQVTVSSGGGGSGGGGSGGGGSQVQLQESGGGLVQPGGSLRLSCAASGSIFSTDAMGWYRQPPGKQRELVATITSGGSTNYVDSVKGRFTISRDNAKNTVYLQMNSLKPEDTAVYYCALHQTTGWGLYNDYWGQGTQVTVSS
notes: also called bivalent A2R3-57
Regarding B3, in assay [5], the binding result is listed as “no binding (tested: 1 or 0.1 µg/ml)”. Also, the “fold higher potency of hPIV-3-GFP neutralization than the monovalent counterpart” value in assay [6] was ~150 fold.

B4: humanized A2R3-59-59 bivalent construct version 1 (VHH)
chain: DVQLVESGGGLVQPGGSLRLSCAASGSISGINGMGWYRQAPGKQRELVAAITSGGSTNYADSVKGRFTISRDNAKNTVYLQMNSLRPEDTAVYYCYVSSTPSWGLYDDYWGQGTLVTVSSGGGGSGGGGSGGGGSEVQLVESGGGLVQPGGSLRLSCAASGSISGINGMGWYRQAPGKQRELVAAITSGGSTNYADSVKGRFTISRDNAKNTVYLQMNSLRPEDTAVYYCYVSSTPSWGLYDDYWGQGTLVTVSS
notes: also called A2R3-h59-59
For the molecule B4, the binding result in assay [4] was “binds”.

B5: humanized A2R3-60-60 bivalent construct version 1 (VHH)
chain: DVQLVESGGGLVQPGGSLRLSCAASGTTVSINGMGWYRQAPGKQREFVALSTTGGVTNYADSVKGRFTISRDNAKNTVYLQMNSLRPEDTAVYYCNAVASPSWGLYDDYWGQGTLVTVSSGGGGSGGGGSGGGGSEVQLVESGGGLVQPGGSLRLSCAASGTTVSINGMGWYRQAPGKQREFVALSTTGGVTNYADSVKGRFTISRDNAKNTVYLQMNSLRPEDTAVYYCNAVASPSWGLYDDYWGQGTLVTVSS
notes: also called A2R3-h60-60
Turning to B5, in assay [4], the binding result is “binds”.

B6: VHH A2R3-59 (VHH)
VHH: QVQLQESGGGLVQPGGSLRLSCAASGSISGINGMGWYRQAPGKQRELVAAITSGGSTNYADSVKGRFTISRDNAKNTVDLQMNSLQPEDTAVYYCYVSSTPSWGLYDDYWGQGTQVTVSS
notes: also called 2AR3-59
Consider B6, for which the binding result in assay [1] is recorded as “no binding (tested: 1 µg/ml)”; in assay [2] it was “binds”. Moreover, in assay [3], the “fold reduction of binding at 500 µg/ml of zanamivir” value is 2.4 fold.

B7: bivalent VHH A2R3-55 (VHH)
chain: QVQLQESGGGLVQAGGSLRLSCAASGSIDRIDAMGWSRQAPGKQRELVATITTGGITNYAVSVKGRFTISRDNAKNTVYLQMNSLKPEDTAVYYCNAQGAPSWGLYEDYWGQGTQVTVSSGGGGSGGGGSGGGGSQVQLQESGGGLVQAGGSLRLSCAASGSIDRIDAMGWSRQAPGKQRELVATITTGGITNYAVSVKGRFTISRDNAKNTVYLQMNSLKPEDTAVYYCNAQGAPSWGLYEDYWGQGTQVTVSS
notes: also called bivalent A2R3-55
On to B7, for which the binding result in assay [5] is listed as “no binding (tested: 1 or 0.1 µg/ml)”. The “fold higher potency of hPIV-3-GFP neutralization than the monovalent counterpart” value in assay [6] is ~50 fold.
